{
  "source": "paper doi:10.1101/776245",
  "target": "SERP2475 (Nhi), full-length (Staphylococcus epidermidis RP62a)",
  "assay": "SEC",
  "data": [
    {"substance": "SERP2475 (Nhi), full-length (enzyme)", "values": [
      {"measurement": "stoichiometry N", "result": 2}
    ]}
  ]
}
